{"source": "patent US20190083600", "test_system": "T1, RSV attachment (G) glycoprotein of RSV strain A2", "T1 sequence": "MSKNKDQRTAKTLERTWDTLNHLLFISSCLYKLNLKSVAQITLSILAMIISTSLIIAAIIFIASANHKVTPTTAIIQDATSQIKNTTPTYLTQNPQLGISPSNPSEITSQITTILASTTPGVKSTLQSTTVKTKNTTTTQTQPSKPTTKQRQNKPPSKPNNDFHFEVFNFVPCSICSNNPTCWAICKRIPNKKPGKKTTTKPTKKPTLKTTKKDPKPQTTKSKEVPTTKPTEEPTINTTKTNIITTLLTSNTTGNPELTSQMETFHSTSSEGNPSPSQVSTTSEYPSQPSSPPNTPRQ"}
{"substance": "cathepsin L", "values": [{"measurement": "G protein cleavage on virions treated in vitro with 50 ng/ul cathepsin L at pH 5.5 (immunoblot)", "result": "When incubated with cathepsin L after growth, the virus that was grown in the presence of a cathepsin L inhibitor contained a cleaved G protein"}]}
